Where “and” joins values, the source holds several entries; their conditions need not be identical. Identical values can stand only once.
What was measured:
[1] = biological target: 6xHis-YlfA 128–425 (Legionella pneumophila); test: SDS-PAGE and immunoblot of gel filtration peak fractions, boiled
[2] = biological target: 6xHis-YlfA 128–425 (Legionella pneumophila); test: SDS-PAGE and immunoblot of gel filtration peak fractions, not boiled
[3] = biological target: 6xHis-YlfB 131–405 (Legionella pneumophila); test: SDS-PAGE and immunoblot of gel filtration peak fractions, boiled
[4] = biological target: 6xHis-YlfB 131–405 (Legionella pneumophila); test: SDS-PAGE and immunoblot of gel filtration peak fractions, not boiled

Row | Substance | stoichiometry N [1] | stoichiometry N [2] | stoichiometry N [3] | stoichiometry N [4]
1 | 6xHis-YlfA 128–425 (domain or fragment) | 2 | 2 and 3 |  | 
2 | 6xHis-YlfB 131–405 (domain or fragment) |  |  | 2 | 2 and 3

— PMC4961411
